Assays:
[1] = molecular target: human EGFR.Fc (extracellular domain of EGFR) (human) (UniProt P00533); assay: SPR
[2] = molecular target: human HER2.Fc (extracellular domain of HER2) (human) (UniProt P04626); assay: SPR

Kd [1] [pM]	koff [1] [s⁻¹]	kon [1] [M⁻¹ s⁻¹]	Kd [2] [pM]	koff [2] [s⁻¹]	kon [2] [M⁻¹ s⁻¹]	Substance
7060	0.000666	94300				Z_(EGFR:1907) (designed binder)
			76	0.000111	1.45e+06	Z_(HER2:342) (designed binder)
			10.9	1.14e-07	10400	Z_(HER2:342).BirA* (designed binder)
